From patent US20160200813A1 come the findings set out here.

The target of experiment [1] is Mouse LRP-8 expressed on HEK293 cells (mouse) (UniProt Q924X6). The experiment can be described thus: cell-based MSD, 1 to 5, mouse-LRP8-HEK293.
Experiment [2] has the same target. Put plainly: cell-based MSD, 1 to 25, mouse-LRP8-HEK293.
Experiment [3] has the same target. The experiment can be described thus: cell-based MSD, 1 to 125, mouse-LRP8-HEK293.
Experiment [4] has the same target. The experiment can be described thus: cell-based binding on MOUSE LRP8-HEK293, supernatant 1:5.
Experiment [5] has the same target. Put plainly: cell-based binding on MOUSE LRP8-HEK293, supernatant 1:25.
Experiment [6] has the same target. The experiment can be described thus: cell-based binding on MOUSE LRP8-HEK293, supernatant 1:125.
The target is the same in experiment [7]. Put plainly: cell-based MSD binding assay on 293H-mLRP8 cells; curve label 11H1-19.
The target is the same in experiment [8]. The experiment can be described thus: cell-based MSD binding assay on 293H-mLRP8 cells; curve label 11H1-21, no plateau up to about 600 nM.
Experiment [9] shares this target. The experiment can be described thus: cell-based MSD binding assay on 293H-mLRP8 cells; curve label 11H1-20.
For experiment [10] the target is unchanged. Put plainly: cell-based binding assay, mLRP8.
Experiment [11] has the same target. Put plainly: cell-based MSD-ECL binding on cells overexpressing mouse LRP-8 variant 1 (mLRP8 assay); curve without plateau up to 10000 ng/ml.
Experiment [12] has the same target. Put plainly: fit of the FACS titration of FIG. 12A on mLRP8-transfected HEK293 cells; the column head prints EC50 only, nM is from legend paragraph 78 and the axis of FIG. 12A.
The target is the same in experiment [13]. Put plainly: FACS, mouse LRP8 cells. Background: A flow cytometer gives signals particle by particle.
Experiment [14] has the same target. The experiment can be described thus: mLRP8 cell binding; chimeric VL / chimeric VH.

Substitutions are numbered along the chain they refer to.

B1: BGK-7F7 (GENOVAC candidate clone of Table 17) (antibody, V domains shown)
VH: QVTLKESGPGILQPSQTLSLTCTFSGFSLSTYGLGVGWIRQPSGKGLEWLANIWWDDAKYYNPSLKNRLTISKDTSNNQAFLKIPNVDTADTARYYCARTTKPYYFDYWGQGVMVTVSS
VL: HFVLAQPNSVSTNLGSTVKLSCKRSTANIGSNYVNWYQQHEGRSPTTLIYRDDRRPDGVPDRFSGSIDRSSNSALLTINNVQTEDEADYFCQSYSSGINIFGGGTKLTVL
Turning to B1, the fold over IgG control in [1] was 3.5 fold; in experiment [2], 6 fold; in [3] it was 5.3 fold. Besides, the results for the fold over isotype control in experiment [4], in experiment [5] and in [6] were 27.4 fold, 21.6 fold and 13.1 fold, respectively.

B2: LRP8-ML199.11H1.5B2 VH1/VL1A.19 (antibody, V domains shown)
VH: EVQLVESGGGLVKPGGSLRLSCAASRFTFSNYGMSWVRQAPGKGLEWVSTISSGGRYTYYPDHVKGRFTISRDNAKNSLYLQMNSLRAEDTAVYYCARDYLYAMDYWGQGTTVTVSS
VL: DVVMTQSPLSLPVTPGEPASISCRSSQSLVYSRGNTYLHWYLQKPGQSPQVLMYKVSNRFSGVPDRFSGSGSGTDFTLKISRVEAEDVGVYFCSQSTHVPLTFGQGTKLEIK
As usually defined, the EC50 is the concentration that produces a half-maximal response. On to B2, for which the concentration giving a half-maximal response (EC50) in experiment [7] turned out to be 24 nM.

B3: LRP8-ML199.11H1.5B2 VH1/VL1A.21 (antibody, V domains shown)
VH: B2 VH
VL: B2 VL with R33P
With B3, the EC50 in experiment [8] worked out at 249 nM. That is a sub-micromolar value.

B4: LRP8-ML199.11H1.5B2 VH1/VL1A.20 (antibody, V domains shown)
VH: B2 VH
VL: B2 VL with R33W
The molecule B4 had an EC50 in experiment [9] of 21 nM.

B5: anti-LRP-8 BGK-2C8.8C antibody (antibody, V domains shown)
VH: EVQLVESGGGLVQPGRSLKLSCAASGFTVSDYYMAWVRQAPKKGLEWVASISYEGSSTYYGDSVKGRFTISRDNAKSILYLQMNSLRSEDTATYYCARPLRYYGYNYRFAYWGQGTLVTVSS
VL: DIQMSQSPPVLSASVGDRVTLSCKASQNIHKNLDWYQQKHGEAPKLLIYYTDNLQTGIPSRFSGSGSGTDYTLTISSLQPEDVATYYCYQYNSGPTFGAGTKLELQ
Turning to B5, the EC50 in experiment [10] worked out at 22 nM; in experiment [11], 4.4 µg/mL; in [12], 2.61 nM.

B6: chimeric anti-LRP-8 ML199.11H1.5B2 antibody [mu/hu IgG1/k] LALA (antibody, V domains shown)
VH: EVQLVESGGDLVKPGGSLKLSCAASRFTFSNYGMSWVRQTPDKRLEWVATISSGGRYTYYPDSVKGRFTISRDNAKNTLYLQMSSLRSEDTAMYYCARDYLYAMDYWGQGTSVTVSS
VL: DVVMTQTPLSLPVSLGDQASISCRSSQSLVYSNGNTYLHWYLQKPGQSPKVLMYKVSNRFSGVSDRFSGSGSGTDFTLKISRVEAEDLGVYFCSQSTHVPLTFGAGTKLELK
With B6, the FACS (ratio +/-) in [13] stood at 283. Also, the figures for the concentration giving a half-maximal response (EC50) in experiment [10] and in experiment [14] were 0.32 nM and 0.95 nM, respectively.
